The record followed here is article PMC7930385, “A Novel SOD1 Intermediate Oligomer, Role of Free Thiols and Disulfide Exchange” (Frontiers in Neuroscience, 2020).

This series deals with the molecule itself. As to the kind of experiment: thioflavin-T fluorescence of fibrillation + electron microscopy; 40 μM apo protein in 10 mM potassium phosphate, pH 7.0, with TCEP (0-10 mM) and 40 μM thioflavin-T, 37°C, agitated at 300 rpm in 96-well plates with a Teflon ball; fibrils seen by negative-stain EM.

B1: apo C6A/C111S human SOD1 (apo AS-SOD1) (enzyme)
chain: not shown
modifications: no N-terminal acetylation (expression in E. coli); metal-free (apo); C57-C146 disulfide intact at the start and reduced by TCEP in the reaction
notes: Cu/Zn superoxide dismutase 1 (SOD1), human, 153-residue subunit, both free cysteines removed (C6A, C111S); numbers count on: the mature protein (numbered from A1); The printed mass of AS S-S (15756.43 Da) appears to fit the 153-residue chain without Met and without acetyl; also called AS mutant; apo AS^S–S; source: E. coli, purified, demetallated by dialysis (apo)
B1: the binding result is reported as “binds”.
